± gives the uncertainty stated by the source.
assay: amyloid nucleation score (Sup35N fusion, yeast selection) (log enrichment); library NNK2; higher = more nucleation; inactive = no reads after selection
Method in brief: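 After 24 hours of induction with 100 μM copper sulfate, psi-negative yeast expressing peptides of 20 random codons fused to Sup35N were grown for 7 days at 30°C on medium lacking adenine and uracil. Input and output plasmid inserts were sequenced with Illumina, and sequences with under 100 input reads were discarded. Scores for nucleation are the DiMSum log enrichment of output over input reads, centred on the mode score of non-aggregating sequences.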

Row | Substance | amyloid nucleation score
1 | GIWITGAWTTSLLCIRTLLG | 0.631 ± 0.43
2 | SFSANADYGWNDRTNFFSVF | inactive
3 | LERECVENDGLGWSRLEYVR | 0.42 ± 0.33
4 | NTRASSKGIDMGYCQYH | 0.066 ± 0.49
5 | VVYFFFCLDMVMTGF | 4.65 ± 0.087
6 | NIRAKNRDFRLGLANRKETA | 1.15 ± 0.27
7 | TAQILLSTGSVLHLMLGGSP | 3.02 ± 0.088
8 | SLGRGPYDRNMIVFMMRELT | -0.682 ± 0.64
9 | RSVFDLMPRLYDYATNHLSY | -0.057 ± 0.34
10 | SMCDNQKLATDFVSAPRKYG | -0.73 ± 0.79
11 | AGYLNRNHLLRMLYWCSCFG | inactive
12 | FLRLGLAITLISV | inactive
13 | TRWSANYPRCWPTMRRCLSL | 0.858 ± 0.51
14 | VHYQLKSIRMDSM | 0.484 ± 0.19
15 | GISAHHALVTLMLMAIVGHY | 1.55 ± 0.55
16 | YSMLQF | inactive
17 | MILHCGASKGIPFLFGKDFL | -0.208 ± 0.16
18 | CETLSGMRGLCRKKTDVPDI | -0.036 ± 0.63
19 | VCSKHD | -0.78 ± 1.1
20 | FVLRCDPVMA | -0.053 ± 1
21 | SIKGIEVEYQGFRVCYSTVY | inactive
22 | FWSSARKDLSATKKGVGFVG | 5.52 ± 0.06
23 | QICNARFLLLLRTQALEQCA | 0.499 ± 0.56
24 | ARTICTFRHMSGIGAMGLDC | 0.289 ± 0.8
25 | DLTCRTSLSRGWKVLASSNG | 0.413 ± 0.31

Row | Substance | amyloid nucleation score
26 | SIFMYMYKSFFMGNYINGGM | 1.03 ± 0.27
27 | RMGSYDVNRNSFFKCSGRVS | -0.864 ± 0.78
28 | RCSVGVAWEVGKYVIKIRGF | -1.08 ± 0.62
29 | IISFLLFGEGGFFLVLY | inactive
30 | IGHLPMMVLT | 1.42 ± 0.36
31 | WCGLISASYTLIHSNRFMKL | -1.04 ± 1.1
32 | GICVFCNSYWL | 8.843 ± 0.055
33 | SNSGMTVKCNYVYSFVTGKS | 0.816 ± 0.21
34 | IEDSEREMACINPGFSFVVV | -1.83 ± 1.1
35 | GKFYQMENSV | -1.27 ± 0.78
36 | WLFTRRTLVWQSTHPNVMTT | inactive
37 | DKYGFSSVSGVTEDFVDGLM | 0.736 ± 0.6
38 | GVAYRWPFGQK | 0.155 ± 1.1
39 | LTKGRSFCVNPFHITVDGQE | -0.761 ± 0.23
40 | WGNHSYLTVYRFFIRNWDVI | -0.81 ± 0.55
41 | RWYSPWSWY | 0.662 ± 0.36
42 | VHRSSLASNGSLES | -0.398 ± 0.45
43 | TLFCIVMYCTKVETNFLVLH | 6.45 ± 0.085
44 | LVGMSANNTVKYSK | 0.144 ± 0.36
45 | RIRVIIVPALVLA | inactive
46 | PAWAHVSLRLMLFYWGYLFY | inactive
47 | PPVVVSTSIWSRLCSYV | 0.151 ± 0.35
48 | ISTINNGYVFRLYLGSCILD | 6.02 ± 0.081
49 | VFWSVYFDACLVFMTVSYLL | inactive
50 | VMRNKILF | -0.341 ± 0.79

Row | Substance | amyloid nucleation score
51 | HIVEIGALYRAIYLKVKWRQ | 2.62 ± 0.21
52 | LVNWFVDYRSDVSHLQTGKV | 1.08 ± 0.36
53 | RSSVWGMRELIERKNTSGAW | 1.49 ± 0.19
54 | NVFVLFVHRVVGQELAELLG | 4.58 ± 0.065
55 | LNGYATLCYPVILSRIVYGP | 4.03 ± 0.043
56 | LLMRVFRGESR | -1.02 ± 0.49
57 | APRCALQLGS | 1.27 ± 0.28
58 | LLQIQCICEGMRQWMLKYYY | -0.994 ± 1.1
59 | IQQFVKVFVGDLNLTVDRNM | 7.554 ± 0.06
60 | VSDLRRMKDGC | inactive
61 | MLAWWPFRKWRVLIRGSRGF | 1.5 ± 0.35
62 | TFFYCGPRKLFYKI | -0.387 ± 1.1
63 | LIYPANVWFGFYAEAGEVAQ | 4.21 ± 0.044
64 | RGLRMYERGSVTWSFDFMEG | 5.44 ± 0.077
65 | IRLDTKDGCRYN | inactive
66 | ISDHTTNKDQRFSYS | -0.455 ± 1.1
67 | PPYALDVTFVMRPKLSSR | 1.21 ± 0.23
68 | ELAMNIMMAFYYVCSIISTE | inactive
69 | CARIWLRTWGKIRA | 0.092 ± 1.1
70 | FQMVLYRYYTTGISGKLLQD | inactive
71 | MSSHSTCRGVGINGLMVFVL | 8.073 ± 0.057
72 | GILYLSLYDFCV | -0.763 ± 1
73 | CMFVIVKVCIVHGHIVSIAS | inactive
74 | NLDDEL | 0.422 ± 0.43
75 | WLSDRASCYRESRCVEQ | -0.742 ± 0.42

Row | Substance | amyloid nucleation score
76 | DYGNLYL | -0.291 ± 1.1
77 | LTYYTNRTQYLML | -0.424 ± 1.1
78 | CWLEKLGGSRCFNFNDNKLP | -1.19 ± 0.75
79 | GSRAFALSTCCFMKYGSGMG | 8.075 ± 0.078
80 | IPIYFSHMNRHWIKCYVLVC | -0.913 ± 0.36
81 | RLRAQSHCAVAAGRNMEPWA | 5.986 ± 0.043
82 | KHMLASSFVTVPFVAPCFHF | inactive
83 | RVSGNCIYTKWCVFPVGNLL | -1.12 ± 0.76
84 | FLGDFRVCLF | inactive
85 | VPFGNESWLYTR | -1.06 ± 0.64
86 | SALHLYGFFLRFFERSSVIL | -0.608 ± 0.76
87 | RASVYCFLEHG | 3.42 ± 0.049
88 | HFVRVSFGCCLVTLSMRVDR | 0.669 ± 0.26
89 | TRNYLFTTSNWYVSSKMSNS | -0.632 ± 0.56
90 | GSCPRSDAKSAADCIQV | -0.177 ± 0.79
91 | YANMGYQGLIRGIGVLDWIK | -0.119 ± 0.36
92 | VLFCT | -1.29 ± 0.61
93 | LIFYGSCIFQRFRIGVLSSG | -0.09 ± 0.65
94 | AFRGSYLKFSESTCTIGSLW | 2.12 ± 0.13
95 | KAREWQVLVRCKKLTMKYSK | 8.227 ± 0.046
96 | HYRGSENGVEPSFLYGVSLL | 0.079 ± 0.49
97 | SKLYDVCVHRVWRTWGFQEN | 0.027 ± 1
98 | YVGSTLAFNNKIGGDYNMKS | -0.54 ± 1.1
99 | TCLGSRWLT | 0.653 ± 0.33
100 | HKHSISKCAKEALAALLLFV | -0.319 ± 0.76

Row | Substance | amyloid nucleation score
101 | TLIGNDDLVVTCTYSYDPTL | -0.145 ± 1.1
102 | IFSRIDTQCGMMSISQQ | -0.364 ± 0.24
103 | EHSWIKLCIEWMSKPIGARR | 0.927 ± 0.32
104 | APWYIL | 0.225 ± 0.36
105 | FGMLFGQDKTVHRSGLDLCG | 0.119 ± 0.5
106 | LGMFSYIS | 0.105 ± 0.44
107 | LIYWCHAFVKT | -1.27 ± 0.53
108 | LSVAFRVW | -0.55 ± 0.49
109 | DWRSLRLGVK | -0.065 ± 0.32
110 | YRSFSLCMCFYLYRSDDTLC | -1.69 ± 1.1
111 | PGEGMSQEERLMLCRCVWVT | 0.874 ± 0.52
112 | FNSWLV | -0.86 ± 1.1
113 | YRFHSTKRCINSGDNC | -0.14 ± 1
114 | TVRLFFLG | 3.98 ± 0.11
115 | LKLTVPKDRRKKMKGRVALI | -0.064 ± 0.76
116 | VDTHSILASCLRVTKGVTDK | 0.138 ± 1.1
117 | DIIFVDALMSVTSVQQNLH | -0.388 ± 0.55
118 | IMELSFLSWVLRSKMDFHAE | 5.34 ± 0.066
119 | ADDFINVNDTNKTVLCMCCG | -0.61 ± 0.78
120 | TSIYLVLGYIFESATRLF | 0.144 ± 0.79
121 | WIMVI | -0.124 ± 0.26
122 | IACLNKTFLFSCVNIYGLMT | 5.736 ± 0.037
123 | FLFSFKDPKHMDITCKAVYA | -0.433 ± 0.78
124 | LYYFGTGAICMLLNWICPGC | inactive
125 | KAEHVFFVYRGLTEVFASGL | inactive

Row | Substance | amyloid nucleation score
126 | GRLSWFS | -0.624 ± 0.49
127 | LRHWCE | 0.218 ± 0.18
128 | ICAGSGFRKGRINPELRVHW | -1.24 ± 0.75
129 | GYSFRYTFCSHSGDVAVVSK | -0.739 ± 1
130 | FVSRIGIFLS | -1.28 ± 0.78
131 | LHLRNVMVQ | -0.681 ± 0.31
132 | CSHITYQMCFILLNTAYFSH | -0.159 ± 1.1
133 | YDLRVMWRNVSSDFLREKVC | -0.249 ± 1
134 | LGYCGM | inactive
135 | GALKSMLQVFQEGLLHDWSI | -0.936 ± 0.31
136 | QDMLWVPCNSGYRTQ | 0.627 ± 0.47
137 | CCELAPWFFTI | 0.068 ± 0.32
138 | LWLPQFEDCSREHTCEFLAI | 0.237 ± 0.56
139 | MIVLKRSPSLCSIS | -0.007 ± 0.34
140 | VIFAHGVFGECWFVYSLVFS | -0.784 ± 0.76
141 | WRGGFWPCSVVLI | 0.354 ± 0.65
142 | VAWTRCSLHWLQFVLCLSGE | 5.92 ± 0.041
143 | WHQLKSTPLHFYSINTASFN | 0.123 ± 0.6
144 | IGRMGIQKWS | 0.698 ± 0.47
145 | FCKDLMFC | 0.378 ± 0.36
146 | CLTSFEES | -0.155 ± 0.65
147 | HVHVNLYRTSGDIEHMSVQL | 8.391 ± 0.046
148 | AFLVYRKNNIPQYRVKVVDM | -0.225 ± 0.63
149 | VYIWSCCVKSFESSTFDDDN | 7.972 ± 0.074
150 | GKIKIEGNDLIGGLQGRLRP | inactive

Row | Substance | amyloid nucleation score
151 | VTIEFATHLWGVMY | 4.78 ± 0.072
152 | WPWVSGPVKQSRCFRIDLSM | 0.459 ± 0.57
153 | SKNYSSWPNPHMIQGLLGSM | -0.735 ± 0.3
154 | LANRPCWFLQRARAMV | 0.959 ± 0.74
155 | QVAKAYFEEGRRDDFSYHGK | 0.171 ± 0.56
156 | NWPGCVHNTVISDLGRVHCM | -0.853 ± 0.56
157 | ELVLF | -0.454 ± 0.42
158 | GFSVSARVMIDLPYVEVRFS | 0.07 ± 0.74
159 | RCEVAMDGVESVKSFPA | 0.697 ± 0.35
160 | AFCAGVQAPEFPNLA | 0.437 ± 0.65
161 | RKTLLLKTRACPSPLFWLDT | inactive
162 | NATLSSFYSLGNEMHSGHSV | -0.209 ± 0.48
163 | LWILNNFGTIIFRTSHYKGV | 7.4 ± 0.078
164 | CGMCKF | -0.487 ± 0.29
165 | EGTTKFDWHYYQVSTGNFAS | 1.05 ± 0.51
166 | KNTYKQACWQAELHKGLLVG | 0.748 ± 0.17
167 | DRGTGNRGSCDRSYLDSGKV | 0.963 ± 0.29
168 | VFFWLQNFEVLWPMEARVWE | 4.14 ± 0.096
169 | MCEFLIYWIYNFSFVSSPRL | 0.157 ± 1
170 | SRWIGSECNPNCNLSVSYIL | 4.87 ± 0.057
171 | YTFWNVLC | 3.59 ± 0.084

Source: the supplement of paper PMC12042874
